In publication PMC10761769, “Allosteric control of dynamin-related protein 1 through a disordered C-terminal Short Linear Motif” (Nature Communications, 2024):
“And” between values parts separate entries of the source, which are not always exact repeats. Identical values can stand only once.

B1: mouse GIPC-1 (GAIP interacting protein, C-terminus 1), full length (natural protein, UniProt Q9Z0G0 1-333, looked up)
chain: MPLGLGRRKKAPPLVENEEAEPSRSGLGVGEPGPLGGSAAGESQMGLPPPPAALRPRLVFHTQLAHGSPTGRIEGFTNVKELYGKIAEAFRLPAAEVMFCTLNTHKVDMDKLLGGQIGLEDFIFAHVKGQRKEVEVFKSEEALGLTITDNGAGYAFIKRIKEGSVIDHIQLISVGDMIEAINGQSLLGCRHYEVARLLKELPRGRTFTLKLTEPRKAFDMISQRSAGGHPGSGPQLGTGRGTLRLRSRGPATVEDLPSAFEEKAIEKVDDLLESYMGIRDTELAATMVELGKDKRNPDELAEALDERLGDFAFPDEFVFDVWGAIGDAKVGRY
notes: GIPC-1, mouse, full length; also called full-length GIPC-1; source: subcloned in pGEX-6P1, expressed and purified using standard protocols; GST removed by HRV3C; not shown: GST, N-terminal, cleaved
B2: human dynamin-related protein 1 (Drp1) isoform 3, wild type, N-terminal His6 tag (enzyme, UniProt O00429-4 1-699, looked up)
chain: MEALIPVINKLQDVFNTVGADIIQLPQIVVVGTQSSGKSSVLESLVGRDLLPRGTGIVTRRPLILQLVHVSQEDKRKTTGEENGVEAEEWGKFLHTKNKLYTDFDEIRQEIENETERISGNNKGVSPEPIHLKIFSPNVVNLTLVDLPGMTKVPVGDQPKDIELQIRELILRFISNPNSIILAVTAANTDMATSEALKISREVDPDGRRTLAVITKLDLMDAGTDAMDVLMGRVIPVKLGIIGVVNRSQLDINNKKSVTDSIRDEYAFLQKKYPSLANRNGTKYLARTLNRLLMHHIRDCLPELKTRINVLAAQYQSLLNSYGEPVDDKSATLLQLITKFATEYCNTIEGTAKYIETSELCGGARICYIFHETFGRTLESVDPLGGLNTIDILTAIRNATGPRPALFVPEVSFELLVKRQIKRLEEPSLRCVELVHEEMQRIIQHCSNYSTQELLRFPKLHDAIVEVVTCLLRKRLPVTNEMVHNLVAIELAYINTKHPDFADACGLMNNNIEEQRRNRLARELPSAVSRDKVASGGGGVGDGVQEPTTGNWRGMLKTSKAEELLAEEKSKPIPIMPASPQKGHAVNLLDVPVPVARKLSAREQRDCEVIERLIKSYFLIVRKNIQDSVPKAVMHFLVNHVKDTLQSELVGQLYKSSLLDDLLTESEDMAQRRKEAADMLKALQGASQIIAEIRETHLW
notes: dynamin-related protein 1 (Drp1), human, isoform 3, 699 residues, ends in the CT-SLiM R694-W699 (RETHLW); numbers count on: isoform 3 (699 residues); also called WT Drp1; WT
B3: human Drp1 isoform 3 ΔCT4 (last four residues of the CT-SLiM removed) (enzyme, UniProt O00429-4 1-695, looked up)
chain: MEALIPVINKLQDVFNTVGADIIQLPQIVVVGTQSSGKSSVLESLVGRDLLPRGTGIVTRRPLILQLVHVSQEDKRKTTGEENGVEAEEWGKFLHTKNKLYTDFDEIRQEIENETERISGNNKGVSPEPIHLKIFSPNVVNLTLVDLPGMTKVPVGDQPKDIELQIRELILRFISNPNSIILAVTAANTDMATSEALKISREVDPDGRRTLAVITKLDLMDAGTDAMDVLMGRVIPVKLGIIGVVNRSQLDINNKKSVTDSIRDEYAFLQKKYPSLANRNGTKYLARTLNRLLMHHIRDCLPELKTRINVLAAQYQSLLNSYGEPVDDKSATLLQLITKFATEYCNTIEGTAKYIETSELCGGARICYIFHETFGRTLESVDPLGGLNTIDILTAIRNATGPRPALFVPEVSFELLVKRQIKRLEEPSLRCVELVHEEMQRIIQHCSNYSTQELLRFPKLHDAIVEVVTCLLRKRLPVTNEMVHNLVAIELAYINTKHPDFADACGLMNNNIEEQRRNRLARELPSAVSRDKVASGGGGVGDGVQEPTTGNWRGMLKTSKAEELLAEEKSKPIPIMPASPQKGHAVNLLDVPVPVARKLSAREQRDCEVIERLIKSYFLIVRKNIQDSVPKAVMHFLVNHVKDTLQSELVGQLYKSSLLDDLLTESEDMAQRRKEAADMLKALQGASQIIAEIRE
notes: Drp1, human, isoform 3, without the last four residues (T696-W699) of the 699; numbers count on: isoform 3 (699 residues); Limits worked out from 'the last four residues removed' and W699 as the last residue; also called ΔCT4 Drp1; ΔCT4 variant
B4: human Drp1 isoform 3 ΔCT6 (last six residues, the whole CT-SLiM, removed) (enzyme, UniProt O00429-4 1-693, looked up)
chain: MEALIPVINKLQDVFNTVGADIIQLPQIVVVGTQSSGKSSVLESLVGRDLLPRGTGIVTRRPLILQLVHVSQEDKRKTTGEENGVEAEEWGKFLHTKNKLYTDFDEIRQEIENETERISGNNKGVSPEPIHLKIFSPNVVNLTLVDLPGMTKVPVGDQPKDIELQIRELILRFISNPNSIILAVTAANTDMATSEALKISREVDPDGRRTLAVITKLDLMDAGTDAMDVLMGRVIPVKLGIIGVVNRSQLDINNKKSVTDSIRDEYAFLQKKYPSLANRNGTKYLARTLNRLLMHHIRDCLPELKTRINVLAAQYQSLLNSYGEPVDDKSATLLQLITKFATEYCNTIEGTAKYIETSELCGGARICYIFHETFGRTLESVDPLGGLNTIDILTAIRNATGPRPALFVPEVSFELLVKRQIKRLEEPSLRCVELVHEEMQRIIQHCSNYSTQELLRFPKLHDAIVEVVTCLLRKRLPVTNEMVHNLVAIELAYINTKHPDFADACGLMNNNIEEQRRNRLARELPSAVSRDKVASGGGGVGDGVQEPTTGNWRGMLKTSKAEELLAEEKSKPIPIMPASPQKGHAVNLLDVPVPVARKLSAREQRDCEVIERLIKSYFLIVRKNIQDSVPKAVMHFLVNHVKDTLQSELVGQLYKSSLLDDLLTESEDMAQRRKEAADMLKALQGASQIIAEI
notes: Drp1, human, isoform 3, without the last six residues (R694-W699) of the 699; numbers count on: isoform 3 (699 residues); Limits worked out from 'the last six residues removed' and W699 as the last residue; also called ΔCT6 Drp1; ΔCT6 variant

Columns and labels:
[1] = target: R403A Drp1 (UniProt O00429); experiment: not stated; R403A Drp1 in solution (Supplementary Fig. 4a); the same protein was used as a dimer for SEC-SAXS at ~34 uM in buffer A with 1 mM DTT
[2] = target: human dynamin-related protein 1 (Drp1) isoform 3, wild type, N-terminal His6 tag (human) (UniProt O00429)
[3] = target: the molecule itself; experiment: SEC-MALS; full-length GIPC-1, unliganded, 10 uM at injection, Superdex 200 10/300 GL
[4] = target: the molecule itself; experiment: SEC-MALS; Drp1 in the nucleotide-free apo state, Superose 6 10/300 GL; injected at 5 uM, ~0.5 uM at peak detection; other injection concentrations in the supplement
[5] = target: the molecule itself; experiment: negative-stain EM; 2D class averages of single particles, Drp1 at 2 uM, apo state

Row | Molecule | stoichiometry N [4] | stoichiometry N [5] | further results
1 | R403A Drp1 (from UniProt O00429-4 1-699) (enzyme) |  |  | stoichiometry N [1]: 2
2 | B1 |  |  | fission of free-standing lipid nanotubes by WT Drp1 with GIPC-1 at 1:1 (0.5 uM each), 1 mM GTP [2]: > 30%; stoichiometry N [3]: 2
3 | B2 | 2 and 4 |  | 
4 | B3 | 4 | 2 | 
5 | B4 | 4 | 2 | 
